Measurements reported in PMC9581112.

Target: Pyruvate kinase M2 (PKM2) (human (endogenous in MDA-MB-231 and MCF-7)) (UniProt P14618)
Assay: native gel or EMSA

Chain of Pyruvate kinase M2 (PKM2), P14618 1-531 (enzyme; other documents disagree on this pair) (P14618 whole entry): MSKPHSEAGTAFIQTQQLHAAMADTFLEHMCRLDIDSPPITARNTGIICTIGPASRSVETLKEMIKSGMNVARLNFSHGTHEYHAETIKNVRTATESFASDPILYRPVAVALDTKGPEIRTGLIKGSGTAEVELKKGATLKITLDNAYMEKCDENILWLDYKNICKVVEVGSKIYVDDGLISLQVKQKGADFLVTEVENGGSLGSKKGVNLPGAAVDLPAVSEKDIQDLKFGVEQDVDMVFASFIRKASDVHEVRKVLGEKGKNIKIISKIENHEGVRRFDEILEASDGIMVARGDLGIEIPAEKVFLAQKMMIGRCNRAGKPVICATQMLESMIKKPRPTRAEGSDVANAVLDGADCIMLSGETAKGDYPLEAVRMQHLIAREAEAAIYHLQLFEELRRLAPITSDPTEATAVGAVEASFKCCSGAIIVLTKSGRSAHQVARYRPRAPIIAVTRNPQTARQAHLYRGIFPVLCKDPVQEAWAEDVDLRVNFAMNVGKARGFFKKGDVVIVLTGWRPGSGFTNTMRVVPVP

- stoichiometry N: 2
Substance: Pyruvate kinase M2 (PKM2), P14618 1-531 (enzyme; other documents disagree on this pair)
